{
  "source": "IntAct's records for PubMed 33986552",
  "parents": {"B1": {"name": "Mannose-1-phosphate guanylyltransferase regulatory subunit alpha (Homo sapiens), Q96IJ6-1 (parent)", "chain": "MLKAVILIGGPQKGTRFRPLSFEVPKPLFPVAGVPMIQHHIEACAQVPGMQEILLIGFYQPDEPLTQFLEAAQQEFNLPVRYLQEFAPLGTGGGLYHFRDQILAGSPEAFFVLNADVCSDFPLSAMLEAHRRQRHPFLLLGTTANRTQSLNYGCIVENPQTHEVLHYVEKPSTFISDIINCGIYLFSPEALKPLRDVFQRNQQDGQLEDSPGLWPGAGTIRLEQDVFSALAGQGQIYVHLTDGIWSQIKSAGSALYASRLYLSRYQDTHPERLAKHTPGGPWIRGNVYIHPTAKVAPSAVLGPNVSIGKGVTVGEGVRLRESIVLHGATLQEHTCVLHSIVGWGSTVGRWARVEGTPSDPNPNDPRARMDSESLFKDGKLLPAITILGCRVRIPAEVLILNSIVLPHKELSRSFTNQIIL"}},
  "data": [
    {"variants_of": "B1", "conditions": "with GMPPB", "values": [
      {"variant": "W350A;R352A", "effect of a mutation on the interaction": "disrupting interaction"},
      {"variant": "E85K;Q247A", "effect of a mutation on the interaction": "with no effect"},
      {"variant": "R318E", "effect of a mutation on the interaction": "disrupting interaction"},
      {"variant": "E396R", "effect of a mutation on the interaction": "with no effect"}
    ]}
  ]
}
